One molecule from patent publication US20190284280A1 (ANAPTYSBIO, published 2019) can be followed below.

The target in test [1] is T1, Dimeric soluble human TIM-3 mIgG2a Fc (human; mouse, UniProt Q8TDQ0 22-200).
T1 construct: Captured on an anti-mouse IgG (Fc-specific) Biacore CM5 surface; also called soluble TIM-3 fusion; not shown: mouse IgG2a Fc
T1 sequence (looked up): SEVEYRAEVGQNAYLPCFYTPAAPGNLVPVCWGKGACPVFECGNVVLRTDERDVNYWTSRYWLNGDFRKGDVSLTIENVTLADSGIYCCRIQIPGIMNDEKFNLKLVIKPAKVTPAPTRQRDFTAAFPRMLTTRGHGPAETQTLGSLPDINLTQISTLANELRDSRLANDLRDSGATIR
Kind of test: SPR Biacore T200; TIM-3 fusion captured on anti-mouse IgG Fc, antibody flowed over; 1:1 model. The protocol:
SPR analyses were carried out using a Biacore T200, and kinetic constants were determined using Biacore T200 Evaluation software. […] GE anti-mouse IgG (Fc-specific) was immobilized on a Biacore CM5 chip using EDC-activated amine coupling chemistry. Dimeric soluble human TIM-3 mIgG2a Fc was then captured onto this surface to a target capture level of ˜70 RU or less. Next an exemplary anti-TIM-3 antibody (having heavy and light chains as set forth in SEQ ID NOs: 1 & 2, respectively) was flowed over the surface with captured antigen (TIM-3 fusion). Capture and analyte binding were performed in HBS-EP+ buffer. The captured antigen and antibodies were removed between each cycle to ensure a fresh binding surface for each concentration of […]. The resulting sensorgrams were fitted globally using a 1:1 binding model to calculate on- and off-rates (kassoc and kdissoc, respectively), and dissociation constants as a measure of overall affinity (KD).
For orientation: In SPR one partner is held on a chip, and binding of the other changes the refractive index at the surface.

In test [2] the target is T2, native cynomolgus monkey TIM-3 stably transfected in CHO-K1 cells (cynomolgus monkey, UniProt A0A2K5U3G7 22-294).
T2 construct: whole, on cells; also called cell-surface cynomolgus monkey TIM-3; cynomolgus monkey TIM-3 expressing CHO-K1 cells
T2 sequence: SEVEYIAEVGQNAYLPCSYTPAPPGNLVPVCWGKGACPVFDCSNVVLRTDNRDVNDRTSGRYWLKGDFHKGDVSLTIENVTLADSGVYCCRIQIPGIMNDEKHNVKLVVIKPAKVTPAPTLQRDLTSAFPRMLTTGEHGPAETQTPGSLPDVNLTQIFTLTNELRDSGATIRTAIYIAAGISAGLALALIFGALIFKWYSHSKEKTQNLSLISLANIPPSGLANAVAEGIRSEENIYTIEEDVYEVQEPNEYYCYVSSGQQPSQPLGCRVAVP
Kind of test: flow cytometry on cynomolgus monkey TIM-3 expressing CHO-K1 cells, PE anti-human IgG4 detection. The protocol:
(§1) Flow cytometry studies were performed with CHO-K1 cell line clones in which native human or cynomolgus monkey TIM-3 was stably transfected. An exemplary anti-TIM-3 antibody (having heavy and light chains as set forth in SEQ ID NOs: 1 & 2, respectively) was diluted in 3-fold dilutions. Dilutions of exemplary antibody were added to human or cynomolgus monkey TIM-3 expressing CHO-K1 cells (1E5 cells) and incubated on ice. Cells were washed twice and incubated on ice with PE-conjugated goat anti-human IgG4 to detect antibody binding. Cells were washed and resuspended in the presence of propidium iodide to exclude dead cells and fixed before fluorescence was analyzed on a BD FACSArray (BD Biosciences). Data were analyzed for median fluorescence intensity, graphed, and curves fitted for EC₅₀ value calculation in GraphPad Prism (GraphPad Software, Inc.) using a non-linear (sigmoidal) regression analysis.
In general terms: Flow cytometry measures light scatter and fluorescence of single cells or particles in a stream.

Test [3] has as its target T3, native human TIM-3 stably transfected in CHO-K1 cells (human, UniProt Q8TDQ0 22-301).
T3 construct: whole, on cells; also called cell-surface human TIM-3; human TIM-3 expressing CHO-K1 cells
T3 sequence (looked up): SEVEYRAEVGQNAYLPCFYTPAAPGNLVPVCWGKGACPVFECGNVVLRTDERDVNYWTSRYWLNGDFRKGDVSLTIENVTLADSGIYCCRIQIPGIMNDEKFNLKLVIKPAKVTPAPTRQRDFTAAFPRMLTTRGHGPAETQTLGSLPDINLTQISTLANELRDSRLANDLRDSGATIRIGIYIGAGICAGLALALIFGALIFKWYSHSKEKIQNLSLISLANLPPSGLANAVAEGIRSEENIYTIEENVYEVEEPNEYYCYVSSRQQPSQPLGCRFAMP
Kind of test: flow cytometry on human TIM-3 expressing CHO-K1 cells, PE anti-human IgG4 detection. The protocol:
as §1

The target in test [4] is T4, soluble cynomolgus monkey TIM-3 fusion (cynomolgus monkey, UniProt A0A2K5U3G7 22-195).
T4 construct: The SPR method describes only the human mIgG2a Fc fusion; not shown: mIgG2a Fc i
T4 sequence: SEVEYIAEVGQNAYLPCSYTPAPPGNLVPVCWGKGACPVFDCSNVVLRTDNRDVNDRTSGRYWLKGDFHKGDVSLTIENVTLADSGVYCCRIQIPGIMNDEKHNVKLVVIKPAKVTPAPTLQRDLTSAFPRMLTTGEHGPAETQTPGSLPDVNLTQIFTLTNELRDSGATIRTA
Kind of test: SPR Biacore T200; captured TIM-3 fusion, antibody flowed over; 1:1 model.

B1: exemplary anti-TIM-3 antibody (having heavy and light chains as set forth in SEQ ID NOs: 1 & 2, respectively) (antibody, human IgG4 S228P, kappa, V domains shown)
VH: EVQLLESGGGLVQPGGSLRLSCAAASGFTFSSYDMSWVRQAPGKGLDWVSTISGGGTYTYYQDSVKGRFTISRDNSKNTLYLQMNSLRAEDTAVYYCASMDYWGQGTTVTVSS
VL: DIQMTQSPSSLSASVGDRVTITCRASQSIRRYLNWYHQKPGKAPKLLIYGASTLQSGVPSRFSGSGSGTDFTLTISSLQPEDFAVYYCQQSHSAPLTFGGGTKVEIKR
modifications: N-glycosylation at asparagine residue 290 of SEQ ID NO:1
notes: Humanized IgG4 (human IGHG4*01) / kappa (IGKC*01); also called exemplary humanized monoclonal anti-TIM-3 antibody; anti-TIM-3 mAb
Regarding B1, the values for the Kd in test [1] and in test [4] were 7 pM and 17 pM, respectively. The values for the dissociation rate constant (koff) in test [1] and in test [4] were 0.00011 s⁻¹ and 0.00019 s⁻¹, respectively. Besides, the on-rate (kon) (as a rule, the rate constant with which the complex forms) in test [1] came to 1.5e+07 M⁻¹ s⁻¹; in test [4] it was 1.1e+07 M⁻¹ s⁻¹. The figures for the EC50 in test [2] and in test [3] were 270 pM and 170 pM, respectively.
